In publication PMC11500688:
One block for each substance: values may come before it.

Assays:
[1] = target: CrCFAP410-CTD mutant A219E; assay: static light scattering (SLS); conditions: parent: 15.62
[2] = target: CrCFAP410-CTD mutant A219E (C. reinhardtii); assay: SEC-MALS; static light scattering coupled to SEC; 50 μl at 2 mg/ml on Superdex S-200 10/300 GL; 20 mM HEPES pH 7.5, 100 mM NaCl, 1 mM DTT, 1% glycerol; Mini-DAWN Treos
[3] = target: CrCFAP410-CTD mutant L224P; assay: static light scattering (SLS); conditions: parent: 15.62
[4] = target: HsCFAP410-CTD, C-terminal domain of Homo sapiens cilia- and flagella-associated protein 410, wild type (human) (UniProt O43822); assay: crystal structure; synthetic CTD polypeptides; TbCFAP410-CTD in 2.0 M (NH4)2SO4, 5% iso-propanol, 4°C; HsCFAP410-CTD in 1.5 M NaCl, 10% ethanol, 22°C; CrCFAP410-CTD in 0.02 M CaCl2, 0.1 M sodium acetate pH 5.0, 30% MPD, 4°C
[5] = target: TbCFAP410-CTD, C-terminal domain of Trypanosoma brucei CFAP410, wild type (T. brucei); assay: as above
[6] = target: CrCFAP410-CTD, C-terminal domain of Chlamydomonas reinhardtii CFAP410, wild type (C. reinhardtii); assay: SEC-MALS; static light scattering coupled to SEC; 50 μl at 2 mg/ml on Superdex S-200 10/300 GL; 20 mM HEPES pH 7.5, 100 mM NaCl, 1 mM DTT, 1% glycerol; Mini-DAWN Treos
[7] = target: CrCFAP410-CTD, C-terminal domain of Chlamydomonas reinhardtii CFAP410, wild type (C. reinhardtii); assay: crystal structure; synthetic CTD polypeptides; TbCFAP410-CTD in 2.0 M (NH4)2SO4, 5% iso-propanol, 4°C; HsCFAP410-CTD in 1.5 M NaCl, 10% ethanol, 22°C; CrCFAP410-CTD in 0.02 M CaCl2, 0.1 M sodium acetate pH 5.0, 30% MPD, 4°C

Substance: CrCFAP410-CTD, C-terminal domain of Chlamydomonas reinhardtii CFAP410, wild type L224P
- other: molecular weight (SLS) [3]: 4.16 kDa

Substance: CrCFAP410-CTD, C-terminal domain of Chlamydomonas reinhardtii CFAP410, wild type (domain or fragment)
- stoichiometry N [6]: 4
- stoichiometry N [7]: 4

Next, values leading:

- other: molecular weight (SLS) [1]: 8.35 kDa
Substance: CrCFAP410-CTD, C-terminal domain of Chlamydomonas reinhardtii CFAP410, wild type A219E

- stoichiometry N [2]: 2
Substance: CrCFAP410-CTD mutant A219E (domain or fragment)

- stoichiometry N [4]: 4
Substance: HsCFAP410-CTD, C-terminal domain of Homo sapiens cilia- and flagella-associated protein 410, wild type (from UniProt O43822 212-246) (domain or fragment)

- stoichiometry N [5]: 4
Substance: TbCFAP410-CTD, C-terminal domain of Trypanosoma brucei CFAP410, wild type (domain or fragment)
